Test results from US20130209454A1.

What was measured:
[1] = molecular target: Env of HIV-1 strain AC10.0.29 (HIV-1); experiment: cell-based or functional assay
[2] = molecular target: Env of HIV-1 strain CAP210.2.00.E8 (HIV-1); experiment: cell-based or functional assay
[3] = molecular target: Env of HIV-1 strain CAP45.2.00.G3 (HIV-1); experiment: cell-based or functional assay
[4] = molecular target: Env of HIV-1 strain Du172.17 (HIV-1); experiment: cell-based or functional assay
[5] = molecular target: Env of HIV-1 strain SC422661.8 (HIV-1); experiment: cell-based or functional assay
[6] = molecular target: Env of HIV-1 strain TRO.11 (HIV-1); experiment: cell-based or functional assay
[7] = molecular target: the viral strains including SC422661.8, TRO0.11, CAP45.2.00G3, CAP210.2.00E8, Du172.17, and AC10.0.29; experiment: cell-based or functional assay
[8] = molecular target: HIV-1 Env of strain AC10.0.29 (HIV-1); experiment: cell-based or functional assay
[9] = molecular target: HIV-1 Env of strain CAP210.2.00.E8 (HIV-1); experiment: cell-based or functional assay
[10] = molecular target: HIV-1 Env of strain CAP45.2.00.G3 (HIV-1); experiment: cell-based or functional assay
[11] = molecular target: HIV-1 Env of strain Du172.17 (HIV-1); experiment: cell-based or functional assay
[12] = molecular target: HIV-1 Env of strain SC422661.8 (HIV-1); experiment: cell-based or functional assay
[13] = molecular target: HIV-1 Env of strain TRO.11 (HIV-1); experiment: cell-based or functional assay
[14] = molecular target: HIV-1 strain AC10.0.29 envelope (gp120) (HIV-1); experiment: cell-based or functional assay
[15] = molecular target: HIV-1 strain CAP210.2.00.E8 envelope (gp120) (HIV-1); experiment: cell-based or functional assay
[16] = molecular target: HIV-1 strain CAP45.2.00.G3 envelope (gp120) (HIV-1); experiment: cell-based or functional assay
[17] = molecular target: HIV-1 strain Du172.17 envelope (gp120) (HIV-1); experiment: cell-based or functional assay
[18] = molecular target: HIV-1 strain SC422661.8 envelope (gp120) (HIV-1); experiment: cell-based or functional assay
[19] = molecular target: HIV-1 strain TRO.11 envelope (gp120) (HIV-1); experiment: cell-based or functional assay
[20] = molecular target: 93TH057 gp120 core (HIV-1)
[21] = molecular target: CAP244.2.00.D3 gp120 core (HIV-1)
[22] = molecular target: Q259.d2.17 gp120 core (HIV-1)

B1: 3BNC60 (antibody, V domains shown)
VH: QVHLSQSGAAVTKPGASVRVSCEASGYKISDHFIHWWRQAPGQGLQWVGWINPKTGQPNNPRQFQGRVSLTRQASWDFDTYSFYMDLKAVRSDDTAIYFCARQRSDFWDFDVWGSGTQVTVSS
VL: DIQMTQSPSSLSARVGDTVTITCQANGYLNWYQQRRGKAPKLLIYDGSKLERGVPARFSGRRWGQEYNLTINNLQPEDVATYFCQVYEFIVPGTRLDLKRTVA
- IC50 [1]: > 50 µg/mL
- IC50 [2]: 10.6 µg/mL
- IC50 [3]: 43.2 µg/mL
- IC50 [4]: 1.4 µg/mL
- IC50 [5]: 0.042 µg/mL
- IC50 [6]: 0.018 µg/mL
- IC50 (averaged across the strains) [7]: 0.3 µg/mL

B2: NIH45-46 G54I IgG (antibody, name in Kabat numbering, V domains shown)
VH: QVRLSQSGGQMKKPGESMRLSCRASGYEFLNCPINWIRLAPGRRPEWMGWLKPRIGAVNYARKFQGRVTMTRDVYSDTAFLELRSLTSDDTAVYFCTRGKYCTARDYYNWDFEHWGRGAPVTVSS
VL: EIVLTQSPATLSLSPGETAIISCRTSQSGSLAWYQQRPGQAPRLVIYSGSTRAAGIPDRFSGSRWGADYNLSISNLESGDFGVYYCQQYEFFGQGTKVQVDI
- neutralization IC50 [8]: 8.6 µg/mL
- neutralization IC50 [9]: > 50 µg/mL
- neutralization IC50 [10]: > 50 µg/mL
- neutralization IC50 [11]: > 50 µg/mL
- neutralization IC50 [12]: 0.1 µg/mL
- neutralization IC50 [13]: 10 µg/mL

B3: NIH45-46 G54M IgG (antibody, name in Kabat numbering, V domains shown)
VH: QVRLSQSGGQMKKPGESMRLSCRASGYEFLNCPINWIRLAPGRRPEWMGWLKPRMGAVNYARKFQGRVTMTRDVYSDTAFLELRSLTSDDTAVYFCTRGKYCTARDYYNWDFEHWGRGAPVTVSS
VL: EIVLTQSPATLSLSPGETAIISCRTSQSGSLAWYQQRPGQAPRLVIYSGSTRAAGIPDRFSGSRWGADYNLSISNLESGDFGVYYCQQYEFFGQGTKVQVDI
- neutralization IC50 [8]: 1.5 µg/mL
- neutralization IC50 [9]: > 50 µg/mL
- neutralization IC50 [10]: > 50 µg/mL
- neutralization IC50 [11]: > 50 µg/mL
- neutralization IC50 [12]: 0.06 µg/mL
- neutralization IC50 [13]: 0.3 µg/mL

B4: NIH45-46 G54L IgG (antibody, name in Kabat numbering, V domains shown)
VH: QVRLSQSGGQMKKPGESMRLSCRASGYEFLNCPINWIRLAPGRRPEWMGWLKPRLGAVNYARKFQGRVTMTRDVYSDTAFLELRSLTSDDTAVYFCTRGKYCTARDYYNWDFEHWGRGAPVTVSS
VL: EIVLTQSPATLSLSPGETAIISCRTSQSGSLAWYQQRPGQAPRLVIYSGSTRAAGIPDRFSGSRWGADYNLSISNLESGDFGVYYCQQYEFFGQGTKVQVDI
- neutralization IC50 [8]: 1.7 µg/mL
- neutralization IC50 [9]: > 50 µg/mL
- neutralization IC50 [10]: > 50 µg/mL
- neutralization IC50 [11]: > 50 µg/mL
- neutralization IC50 [12]: 0.1 µg/mL
- neutralization IC50 [13]: 0.3 µg/mL

B5: NIH45-46 G54H IgG (antibody, name in Kabat numbering, V domains shown)
VH: QVRLSQSGGQMKKPGESMRLSCRASGYEFLNCPINWIRLAPGRRPEWMGWLKPRHGAVNYARKFQGRVTMTRDVYSDTAFLELRSLTSDDTAVYFCTRGKYCTARDYYNWDFEHWGRGAPVTVSS
VL: EIVLTQSPATLSLSPGETAIISCRTSQSGSLAWYQQRPGQAPRLVIYSGSTRAAGIPDRFSGSRWGADYNLSISNLESGDFGVYYCQQYEFFGQGTKVQVDI
- neutralization IC50 [8]: 0.6 µg/mL
- neutralization IC50 [9]: > 50 µg/mL
- neutralization IC50 [10]: > 50 µg/mL
- neutralization IC50 [11]: > 50 µg/mL
- neutralization IC50 [12]: 0.09 µg/mL
- neutralization IC50 [13]: 0.2 µg/mL

B6: 3BNC55 T54W IgG (antibody, name in Kabat numbering, V domains shown)
VH: QVQLVQSGTAVKRPGASVRVSCQASGYTFTDYFIYWWRQAPGQGLEWLGWINPLWSQPSYPSRFQGRLTLTRDTFDEMLYMDLRGLRSDDTGIYFCARRHSDYCDFDIWGSGTQIIVSS
VL: DIQMTQSPSSLSASVGDKVTITCQTSAGYLNWYQQRRGRAPKLLMYDGSRLVTGVPSRFSGRRWGTQYNLTIGSLQPEDIATYYCQVYEFFGPGTRLDLKS
- neutralization IC50 [14]: > 50 µg/mL
- neutralization IC50 [15]: > 50 µg/mL
- neutralization IC50 [16]: > 50 µg/mL
- neutralization IC50 [17]: > 50 µg/mL
- neutralization IC50 [18]: 0.6 µg/mL
- neutralization IC50 [19]: > 50 µg/mL

B7: 12A12^Y54W IgG (antibody, name in Kabat numbering, V domains shown)
VH: SQHLVQSGTQVKKPGASVRISCQASGYSFTDYVLHWWRQAPGQGLEWMGWIKPVWGARNYARRFQGRINFDRDIYREIAFMDLSGLRSDDTALYFCARDGSGDDTSWHLDPWGQGTLVIVSA
VL: DIQMTQSPSSLSASVGDRVTITCQAGQGIGSSLQWYQQKPGKAPKLLVHGASNLHRGVPSRFSGSGFHTTFSLTISGLQRDDFATYFCAVLEFFGPGTKVEIKR
- neutralization IC50 [14]: 0.5 µg/mL
- neutralization IC50 [15]: > 50 µg/mL
- neutralization IC50 [16]: 0.2 µg/mL
- neutralization IC50 [17]: 0.1 µg/mL
- neutralization IC50 [18]: 0.2 µg/mL
- neutralization IC50 [19]: 0.2 µg/mL

B8: NIH45-46^G54W Fab (C-terminal 6x-His tagged heavy chain, SPR) (Fab, V domains shown)
VH: QVRLSQSGGQMKKPGESMRLSCRASGYEFLNCPINWIRLAPGRRPEWMGWLKPRWGAVNYARKFQGRVTMTRDVYSDTAFLELRSLTSDDTAVYFCTRGKYCTARDYYNWDFEHWGRGAPVTVSS
VL: EIVLTQSPATLSLSPGETAIISCRTSQSGSLAWYQQRPGQAPRLVIYSGSTRAAGIPDRFSGSRWGADYNLSISNLESGDFGVYYCQQYEFFGQGTKVQVDI
- Kd [20]: 63 nM
- koff [20]: 0.0016 s⁻¹
- kon [20]: 26000 M⁻¹ s⁻¹
- Kd [21]: 37 nM
- kon [21]: 22000 M⁻¹ s⁻¹
- Kd [22]: 48 nM
- koff [22]: 0.0017 s⁻¹
- kon [22]: 34000 M⁻¹ s⁻¹
